This note sets out measurements from article PMC4126857.

Assay [1] has as its target Drosophila Plk4 cryptic polo box (DmPlk4 CPB), aa 383-601 (Drosophila) (UniProt O97143). Put plainly: MST.
For assay [2], the target named is ZYG-1 cryptic polo box (CPB), aa 338-564 (C. elegans) (UniProt Q9GT24). Kind of assay: MST.
Sequence of ZYG-1 cryptic polo box (CPB), aa 338-564 (C. elegans) (Q9GT24 338-564): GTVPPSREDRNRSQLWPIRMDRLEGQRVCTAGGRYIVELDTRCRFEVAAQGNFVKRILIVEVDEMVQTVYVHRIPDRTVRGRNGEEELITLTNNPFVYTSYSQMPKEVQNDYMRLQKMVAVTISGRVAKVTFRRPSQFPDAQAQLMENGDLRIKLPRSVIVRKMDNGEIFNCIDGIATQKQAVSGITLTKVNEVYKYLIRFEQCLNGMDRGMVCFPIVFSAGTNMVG

Sequence of Drosophila Plk4 cryptic polo box (DmPlk4 CPB), aa 383-601 (Drosophila) (O97143 383-601): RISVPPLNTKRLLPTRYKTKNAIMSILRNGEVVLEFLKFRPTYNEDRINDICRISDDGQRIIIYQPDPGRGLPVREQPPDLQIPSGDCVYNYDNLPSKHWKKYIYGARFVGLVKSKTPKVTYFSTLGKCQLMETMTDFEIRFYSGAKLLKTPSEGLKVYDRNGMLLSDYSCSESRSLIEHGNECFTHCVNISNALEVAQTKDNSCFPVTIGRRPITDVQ

As for “MmAsl acidic region (MmAsl AR), MST ligand (from UniProt A2AUM9 1-1736) (domain or fragment)”, the Kd – broadly, a measure of binding affinity in units of concentration – in assay [1] came out at 0.72 µM.
As for “MmSPD-2 acidic region (MmSPD-2 AR), MST ligand (from UniProt E9Q4Y4 1-2514) (domain or fragment)”, the Kd in assay [1] worked out at 0.53 µM; in assay [2], 5.17 µM.
